The results in this text go back to patent US20250074943A1 (Amgen, published 2025).

Usually Kd stands for the free concentration of one partner at which half of the binding sites on the other are occupied at equilibrium, for simple one-to-one binding.

Numbered stars: 1 amine (or outer) side, 2 acyl side, 3 side chain; on linkers, the order of the positions; unused ones are H or OH. Bridge positions count the residues as written; N and C are the ends. Ends that are not written are not given here. Ttds = non-peptide spacer, O=C(CCC(=O)[*:2])NCCCOCCOCCOCCCN[*:1]

For assay [1], the target named is T1, rat DLL3 expressed on CHO cells (rat, UniProt O88671 33-589).
T1 construct: whole, on cells; also called CHO rtDLL3; High CHO rtDLL3
T1 sequence (looked up): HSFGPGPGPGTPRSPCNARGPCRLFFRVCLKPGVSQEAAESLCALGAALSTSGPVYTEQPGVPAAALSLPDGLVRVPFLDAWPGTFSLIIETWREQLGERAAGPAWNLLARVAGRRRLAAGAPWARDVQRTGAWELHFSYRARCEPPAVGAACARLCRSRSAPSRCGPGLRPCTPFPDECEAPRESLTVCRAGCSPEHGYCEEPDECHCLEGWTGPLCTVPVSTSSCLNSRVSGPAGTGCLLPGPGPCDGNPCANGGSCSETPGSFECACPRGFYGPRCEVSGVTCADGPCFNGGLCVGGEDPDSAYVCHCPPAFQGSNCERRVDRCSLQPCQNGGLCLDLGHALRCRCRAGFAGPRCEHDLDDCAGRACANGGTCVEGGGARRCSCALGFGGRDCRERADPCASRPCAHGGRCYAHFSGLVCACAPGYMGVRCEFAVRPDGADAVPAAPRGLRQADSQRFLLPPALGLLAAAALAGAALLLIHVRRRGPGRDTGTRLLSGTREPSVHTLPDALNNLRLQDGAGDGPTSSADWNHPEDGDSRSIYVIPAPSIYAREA
The assay is described as follows: flow cytometry, 100 µM biotin-labelled PepSP1462 detected with anti-streptavidin-AF488 antibody; CHO huFLT3 as negative control cell line. For orientation: Flow cytometry measures light scatter and fluorescence of single cells or particles in a stream.
Description: (§2) Peptide PepSP1462, identified herein was biotin labeled. The biotin labeled peptide was detected using an anti-streptavidin antibody conjugated to AF488. The AF488-labeled peptide was detected directly.
(§3) Binding specificity of the labeled peptide for DLL3 was assessed using DLL3-negative cell lines. […] Cells were then washed twice with FACS buffer and incubated with an anti-streptavidin antibody conjugated to AF488 (Thermo Fisher). […] Cells were then washed twice with FACS buffer an resuspended in FACS buffer that contained 0.5 μg/ml propidium iodide. Cells were analyzed by flow cytometry, using an LSR Fortessa and FACSDiva software (Becton Dickinson) or Flow Jo (Flow Jo LLC).

Assay [2] has as its target T2, mouse DLL3 expressed on CHO cells (mouse, UniProt O88516 33-592).
T2 construct: whole, on cells; also called CHO muDLL3
T2 sequence (looked up): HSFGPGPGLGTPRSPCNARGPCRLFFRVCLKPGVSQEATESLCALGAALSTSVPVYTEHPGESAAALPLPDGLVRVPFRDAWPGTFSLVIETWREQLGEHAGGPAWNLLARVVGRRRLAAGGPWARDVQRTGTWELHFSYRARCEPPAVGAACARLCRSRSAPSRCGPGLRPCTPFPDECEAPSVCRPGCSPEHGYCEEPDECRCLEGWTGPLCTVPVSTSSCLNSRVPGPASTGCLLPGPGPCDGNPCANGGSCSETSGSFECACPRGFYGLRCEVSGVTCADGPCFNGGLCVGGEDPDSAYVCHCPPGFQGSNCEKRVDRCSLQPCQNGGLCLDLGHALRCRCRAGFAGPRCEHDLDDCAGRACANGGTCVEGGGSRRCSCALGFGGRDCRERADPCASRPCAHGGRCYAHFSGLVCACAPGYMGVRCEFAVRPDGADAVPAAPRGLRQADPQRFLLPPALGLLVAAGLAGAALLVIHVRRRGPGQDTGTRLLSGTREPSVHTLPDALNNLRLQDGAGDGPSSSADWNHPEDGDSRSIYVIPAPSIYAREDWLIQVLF
The description is as above.
Description: as §2, §3

The target of assay [3] is T3, human FLT3 expressed on CHO cells (human, UniProt P36888 27-993).
T3 construct: whole, on cells; Negative control cell line; also called CHO huFLT3; CHO huFTL3
The assay is described as follows: flow cytometry, biotin-labelled PepSP1462 detected with anti-streptavidin-AF488 antibody.
Description: as §2, §3

For assay [4], the target named is T4, recombinant DLL3 ectodomain (rhDLL3-Fc) (human, UniProt Q9NYJ7 27-492, biotinylated (NHS-LC-LC-biotin) in the BLI and SPR assays).
T4 construct: also called rDLL3-Fc; recombinant human DLL3 (rDLL3); not shown: Fc part
T4 sequence: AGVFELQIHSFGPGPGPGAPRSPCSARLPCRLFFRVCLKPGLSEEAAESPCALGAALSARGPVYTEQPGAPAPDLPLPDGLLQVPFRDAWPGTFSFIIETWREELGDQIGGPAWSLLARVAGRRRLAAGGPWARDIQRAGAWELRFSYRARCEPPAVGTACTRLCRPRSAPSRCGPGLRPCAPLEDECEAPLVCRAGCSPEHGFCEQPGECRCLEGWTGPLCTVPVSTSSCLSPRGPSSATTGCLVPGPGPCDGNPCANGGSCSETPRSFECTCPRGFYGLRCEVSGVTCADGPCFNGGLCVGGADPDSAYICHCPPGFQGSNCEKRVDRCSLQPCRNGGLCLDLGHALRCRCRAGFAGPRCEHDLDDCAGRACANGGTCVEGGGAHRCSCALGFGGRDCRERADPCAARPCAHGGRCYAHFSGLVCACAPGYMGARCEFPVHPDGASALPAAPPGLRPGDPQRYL
Description: BLI (Octet), biotinylated rhDLL3-Fc on streptavidin sensors; second listing of 1161 in Table 4, rounded. As to the method: (§1) Binding kinetic assays were performed using Bio-layer interferometry (BLI) technology. The recombinant DLL3 ectodomain (rhDLL3-Fc) was biotinylated using EZ-Link Sulfo-NHS-LC-LC-Biotin Kit according to the manufacturer's protocol (Pierce by Thermo Fisher Scientific). The recombinant protein was incubated with an excess of NHS-LC-LC Biotin ester, in a molar ratio of 1:3 (protein: biotin), at 25° C. for 90 min. The un-reacted biotin ester was removed by subsequent buffer exchange on 0.5 ml Zeba spin desalting columns 7K MWCO (Pierce by Thermo Fisher Scientific).
For orientation: Biolayer interferometry detects binding as a change in optical thickness at a sensor tip.

The target of assay [5] is T4, recombinant DLL3 ectodomain (rhDLL3-Fc). The assay is described as follows: BLI (Octet), biotinylated rhDLL3-Fc on streptavidin sensors. How it is done:
as §1

B1: PepSP1462 labeled with biotin (peptide)
peptide: Ac-AETVEFWWCNGNSENWTCTWGG-{Ttds-K(PEG4-DBCO)-NH2}
modifications: disulfide 9-18 (inferred); also: biotin label, site of attachment not given here
notes: also called PepSP1462-biotin peptide; labeled PepSP1462 peptide
On to B1, for which the binding result is listed as “binds” in assay [1], “binds” in assay [2] and “no binding (tested: 100 µM)” in assay [3].

As to AETVEFWDCWGNTDDWTCTW-NH2 (disulfide 9-18 (inferred)) [PepSP1161], the Kd in assay [4] amounted to 43 nM. Moreover, in assay [5], the Kd worked out at 42.5 nM and the “RT (residence time)” value stood at 87.8 s.
